This is an account of results in patent publication US20040146507A1.

The target in one experiment is human CD18 (human) (UniProt P05107). In words: cell-based or functional assay.
Experiment [1] concerns the target rhesus CD18 (rhesus) (UniProt H9Z8N5). Put plainly: cell-based or functional assay.
For experiment [2] the target is unchanged. In words: saturation binding, rhesus leukocytes, donor 1; Kd(app).
For experiment [3] the target is unchanged. In words: saturation binding, rhesus leukocytes, donor 2; Kd(app).

Chain of human CD18 (human) (P05107 23-769): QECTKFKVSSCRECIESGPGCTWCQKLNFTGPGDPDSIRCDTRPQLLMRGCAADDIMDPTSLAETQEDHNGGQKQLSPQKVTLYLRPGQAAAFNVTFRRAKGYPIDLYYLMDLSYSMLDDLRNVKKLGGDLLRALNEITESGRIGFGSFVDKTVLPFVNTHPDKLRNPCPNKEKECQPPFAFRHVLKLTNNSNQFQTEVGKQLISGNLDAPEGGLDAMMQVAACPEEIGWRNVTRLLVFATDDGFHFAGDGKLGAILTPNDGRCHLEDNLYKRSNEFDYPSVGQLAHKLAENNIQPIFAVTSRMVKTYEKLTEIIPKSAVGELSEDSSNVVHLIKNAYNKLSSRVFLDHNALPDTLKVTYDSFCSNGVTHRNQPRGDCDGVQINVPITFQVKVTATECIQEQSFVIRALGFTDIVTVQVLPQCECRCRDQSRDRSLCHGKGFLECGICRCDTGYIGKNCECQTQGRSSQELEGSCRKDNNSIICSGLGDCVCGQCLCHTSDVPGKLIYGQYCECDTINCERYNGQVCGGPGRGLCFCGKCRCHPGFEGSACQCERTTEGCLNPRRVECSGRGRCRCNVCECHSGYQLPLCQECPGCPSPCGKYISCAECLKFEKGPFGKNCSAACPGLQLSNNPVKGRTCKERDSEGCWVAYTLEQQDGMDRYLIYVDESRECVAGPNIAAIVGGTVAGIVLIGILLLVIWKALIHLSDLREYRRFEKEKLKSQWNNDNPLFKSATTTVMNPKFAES

For the substance murine anti-human CD18 antibody MHM23, the IC50, blocking of cell adhesion, Rh/HuCD11a: HuK in the experiment with human CD18 (human) was determined as 1.4 nM. Further, the IC50, blocking of cell adhesion, RhLy: HuICAM in the experiment with rhesus CD18 (rhesus) [1] is 1.2 nM. The IC50, blocking of cell adhesion, RhLy: HuK with rhesus CD18 (rhesus) [1] amounted to 1.6 nM. The values for the Kd with rhesus CD18 (rhesus) [2] and with rhesus CD18 (rhesus) [3] were 3.9 nM and 4.5 nM, respectively.
